Eleven molecules from patent US11180770B2, “HPPD variants and methods of use” (BASF Agricultural Solutions Seed US LLC, priority 2017, dated 2021) can be followed below.

Where a chain is given by its changes, count along the chain named.

The data set deals with HPPD polypeptides. Put plainly: coupled HPPD activity assay: turnover and residual turnover in crude extracts. Format: biochemical, Pseudomonas fluorescens. The following applies: for Residual turnover: presence of 100 μM Cmpd. 1, changes in absorbance (OD) at 320 nm; for Residual turnover / Turnover: high substrate concentration; for turnover / residual turnover in the presence of Cmpd. 1 compared with a reference HPPD polypeptide, in words: comparison with the reference or parent polypeptide; for Residual turnover [%]: 100 μM Cmpd. 1, signal change with inhibitor divided by signal change without inhibitor; for Turnover: absence of Cmpd. 1, kinetic changes in absorbance (OD) at 320 nm, 30 min. The protocol: The activity of HPPD polypeptides was determined in absence or presence of HPPD inhibitors using the coupled HPPD activity assay (FIG. 1).
For the determination of the residual activity, the apparent kinetic constant (kapp) of the determined substrate conversion was measured as kinetic changes in absorbance (OD) at 320 nm in a coupled assay, in that homogentisate (HGA) formed by HPPD from HPP is directly converted into the well absorbing molecule maleylacetoacetate (MAA) by a second enzyme homogentisate dioxygenase (HGD), applied in excess uniformly in all assays (see FIG. 1). The measurements were performed in 384 micro titer plates (Greiner Bio-One GmbH, Frickenhausen, Germany) by plate readers (Tecan infinite M1000 or M1000PRO, Tecan, Männedorf, Switzerland). The kcat/kM ratio of an enzymatic activity is proportional to the apparent kinetic constant kapp and is proportional to kcat/kM*[E] ([E]=enzyme concentration). […] As both kapp measurements in the presence and absence of inhibitor were performed by use of the identical enzyme sample, crude or purified, and thereby at the same enzyme concentration, the enzyme concentration eliminates from the calculation of residual activity and the ratio of both kapp directly indicates the change of kM due to the inhibition.
The assay solution used for determination of residual activities in raw HPPD polypeptide samples was composed by 200 mM sodium phosphate (Merck, Darmstadt, Germany, pH 7.0), 5 mM MgCl2 (Merck, Darmstadt, Germany), 20 mM ascorbate (Sigma-Aldrich, St. Louis, USA), 1 mM DTT (Sigma-Aldrich, St. Louis, USA), 0.1% Pluronic F-68 (Sigma-Aldrich, St. Louis, USA), 40 μM FeSO4 (Sigma-Aldrich, St. Louis, USA), about 8 mg/ml purified HGD and 500 μM HPP from a 1 M stock solution in DMSO (Sigma-Aldrich, St. Louis, USA) and equilibrated for 20 min on ice. For every HPPD polypeptide sample two assays were performed in quadruplets, whereby 5 μl of HPPD polypeptide sample were mixed firstly with 5 μl buffer (1×BugBuster®; (Merck, Darmstadt, Germany); in 140 mM Tris, pH 7.8, with 1:25000 diluted BNase®; Qiagen, Hilden, Germany)) or 5 μl inhibitor diluted in the same buffer from a 0.1 M stock solution in DMSO (200 μM resulting in 100 μM in the HPPD polypeptide/inhibitor sample) in the reference and inhibition assay, respectively, and subsequently with 10 μl assay solution. The change in absorbance at 320 nm was followed in 1 min intervals for 30 min. The kapp values were calculated as signal slope over time in the early phase of the kinetic reaction, usually for the first 5-10 minutes of the measurements. Additionally and according to the calculated residual activity, the total conversion, i.e. the absolute change in signal, in the 30 min timeframe was monitored as measure of turnover, and a residual turnover was calculated by dividing the change in signal in the presence of inhibitor by the change in signal in the reference sample without inhibitor.
Residual turnover were determined according to Example 3 by measuring total change in signal in the presence and absence of Cmpd. 1 (2-chloro-3-(methylsulfanyl)-N-(1-methyl-1H-tetrazol-5-yl)-4-(trifluoromethyl)benzamide). For each mutant HPPD polypeptide, the total change in signal without HPPD inhibitor herbicides served for normalization of the total change in signal in the presence of the herbicide.

B1: SEQ ID NO:2 (protein)
chain: MADLYENPMGLMGFEFIEFASPTPGTLEPIFEIMGFTKVATHRSKNVHLYRQGEINLILNNEPNSIASYFAAEHGPSVCGMAFRVKDSQKAYNRALELGAQPIHIDTGPMELNLPAIKGIGGAPLYLIDRFGEGSSIYDIDFVYLEGVERNPVGAGLKVIDHLTHNVYRGRMVYWANFYEKLFNFREARYFDIKGEYTGLTSKAMSAPDGMIRIPLNEESSKGAGQIEEFLMQFNGEGIQHVAFLTDDLVKTWDALKKIGMRFMTAPPDTYYEMLEGRLPDHGEPVDQLQARGILLDGSSVEGDKRLLLQIFSETLMGPVFFEFIQRKGDDGFGPWNFAQLFESIERDQVRRGVLTAD
modifications: mutant HPPD polypeptide
Turning to B1, the Residual turnover amounted to 0.026.

B2: SEQ ID NO:3 (protein)
chain: B1 chain with P268A, W336D, N337S, A339K, Q340V
modifications: mutant HPPD polypeptide
For B2, the “turnover / residual turnover in the presence of Cmpd. 1 compared with a reference HPPD polypeptide, in words” value is given as “improvement regarding residual turnovers”.

B3: 47 (protein)
chain: B1 chain with P268A, T270N, W336H, N337S, A339K, Q340V, S344Q, I345M
modifications: mutant HPPD polypeptide
B3: the “Residual turnover [%]” value was 53%, the Turnover is 0.314 and the Residual turnover was found to be 0.166.

B4: 48 (protein)
chain: B1 chain with P268G, T270N, W336H, N337S, A339K, Q340V, S344Q, I345M
modifications: mutant HPPD polypeptide
As to B4, the “Residual turnover [%]” value turned out to be 52%, the Turnover is recorded as 0.225 and the Residual turnover stood at 0.117.

B5: SEQ ID NO:71 (protein)
chain: B1 chain with P215L, W336F, A339K, Q340E
modifications: mutant HPPD polypeptide
Take B5: the Residual turnover is listed as 0.022.

B6: 50 (protein)
chain: B1 chain with P268S, T270N, W336H, N337S, A339K, Q340V, S344Q, I345M
modifications: mutant HPPD polypeptide
Turning to B6, the “Residual turnover [%]” value amounted to 44%, the Turnover is on record as 0.315 and the Residual turnover came out at 0.138.

B7: SEQ ID NO: 67: mutant PfHPPD: 213K 268A 270S 315R 335P 336H 337S 340V 344Q 345M (protein)
chain: B1 chain with R213K, P268A, T270S, T315R, W336H, N337S, A339K, Q340V, S344Q, I345M
modifications: mutant HPPD polypeptide
notes: mutant PfHPPD: 213K 268A 270S 315R 335P 336H 337S 340V 344Q 345M
With B7, the “turnover / residual turnover in the presence of Cmpd. 1 compared with a reference HPPD polypeptide, in words” value is “increase significantly the turnover and the residual turnover”.

B8: SEQ ID NO: 24: mutant PfHPPD: 268A 335P 336H 337S 340V (protein)
chain: B1 chain with P268A, W336H, N337S, A339K, Q340V
modifications: mutant HPPD polypeptide
notes: mutant PfHPPD: 268A 335P 336H 337S 340V
As to B8, the “turnover / residual turnover in the presence of Cmpd. 1 compared with a reference HPPD polypeptide, in words” value is reported as “increase in the residual turnover”.

B9: 49 (protein)
chain: B1 chain with T270N, W336H, N337S, A339K, Q340V, S344Q, I345M
modifications: mutant HPPD polypeptide
On to B9, for which the “Residual turnover [%]” value is reported as 33%, the Turnover is reported as 0.316 and the Residual turnover came out at 0.103.

B10: 46 (protein)
chain: B1 chain with P268G, T270N, W336H, N337S, A339K, Q340V, S344Q, I345V
modifications: mutant HPPD polypeptide
For B10, the “Residual turnover [%]” value came out at 55%, the Turnover is recorded as 0.179 and the Residual turnover turned out to be 0.098.

B11: SEQ ID NO: 6: mutant PfHPPD: 268A 270N 335P 336D 337S 340V (protein)
chain: B1 chain with P268A, T270N, W336D, N337S, A339K, Q340V
modifications: mutant HPPD polypeptide
notes: mutant PfHPPD: 268A 270N 335P 336D 337S 340V
On to B11, for which the “turnover / residual turnover in the presence of Cmpd. 1 compared with a reference HPPD polypeptide, in words” value is “increase in the absolute turnover and absolute residual turnover”.
